In publication doi:10.1101/847806 (bioRxiv, 2019) one finds binding result and Kd data, which are given here for 3 molecules.

In assay [1] the target is OTUB1 wild-type (UniProt Q96FW1 1-271). Put plainly: ITC.
Assay [2] addresses OTUB1 (C91S), catalytically inactive mutant (UniProt Q96FW1 1-271, C91S). In words: ITC. Background: In ITC the heat of successive injections is recorded.

OTUB1 (C91S), catalytically inactive mutant, sequence (Q96FW1 whole entry C91S): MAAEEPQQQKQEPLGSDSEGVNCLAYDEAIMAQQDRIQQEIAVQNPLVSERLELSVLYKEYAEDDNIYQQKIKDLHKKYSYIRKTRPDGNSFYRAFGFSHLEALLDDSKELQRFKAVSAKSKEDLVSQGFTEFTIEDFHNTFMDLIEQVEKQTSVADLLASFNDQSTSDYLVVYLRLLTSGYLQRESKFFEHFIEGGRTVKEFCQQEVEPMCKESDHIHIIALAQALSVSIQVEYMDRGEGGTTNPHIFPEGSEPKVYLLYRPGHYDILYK
OTUB1 wild-type, sequence (Q96FW1 whole entry): as the sequence (Q96FW1 whole entry C91S) above, with S91C counted along it

B1: UBE2D1 (enzyme)
chain: not shown
As for B1, the binding result in assay [1] and in assay [2] was “binds” each time.

B2: UBE2N (enzyme, human, UniProt P61088 1-152, looked up)
chain: MAGLPRRIIKETQRLLAEPVPGIKAEPDESNARYFHVVIAGPQDSPFEGGTFKLELFLPEEYPMAAPKVRFMTKIYHPNVDKLGRICLDILKDKWSPALQIRTVLLSIQALLSAPNPDDPLANDVAEQWKTNEAQAIETARAWTRLYAMNNI
B2: the equilibrium dissociation constant (Kd) – broadly, a measure of binding affinity in units of concentration – in assay [2] came out at 8.1 µM.

B3: UBE2E1 (enzyme, human, UniProt P51965 1-193, looked up)
chain: MSDDDSRASTSSSSSSSSNQQTEKETNTPKKKESKVSMSKNSKLLSTSAKRIQKELADITLDPPPNCSAGPKGDNIYEWRSTILGPPGSVYEGGVFFLDITFTPEYPFKPPKVTFRTRIYHCNINSQGVICLDILKDNWSPALTISKVLLSICSLLTDCNPADPLVGSIATQYMTNRAEHDRMARQWTKRYAT
Consider B3, for which the binding result in assay [2] is listed as “binds”.
